In article PMC6351565, “Mechanism of IRSp53 inhibition by 14-3-3” (Nature Communications, 2019):

T1: pIRSp53FS (human (from the printed UniProt entry), UniProt Q9UQB8-4 1-521, S519C, natively phosphorylated in HEK293T cells; fluorescein maleimide / rhodamine maleimide on C230 and C519)
T1 construct: IRSp53 (BAIAP2), isoform-4, UniProt Q9UQB8-4, full length, S519C; Expressed and purified as m4; also called IRSp53 FRET sensor; phosphorylated IRSp53 (mutant S519C)
T1 sequence (looked up): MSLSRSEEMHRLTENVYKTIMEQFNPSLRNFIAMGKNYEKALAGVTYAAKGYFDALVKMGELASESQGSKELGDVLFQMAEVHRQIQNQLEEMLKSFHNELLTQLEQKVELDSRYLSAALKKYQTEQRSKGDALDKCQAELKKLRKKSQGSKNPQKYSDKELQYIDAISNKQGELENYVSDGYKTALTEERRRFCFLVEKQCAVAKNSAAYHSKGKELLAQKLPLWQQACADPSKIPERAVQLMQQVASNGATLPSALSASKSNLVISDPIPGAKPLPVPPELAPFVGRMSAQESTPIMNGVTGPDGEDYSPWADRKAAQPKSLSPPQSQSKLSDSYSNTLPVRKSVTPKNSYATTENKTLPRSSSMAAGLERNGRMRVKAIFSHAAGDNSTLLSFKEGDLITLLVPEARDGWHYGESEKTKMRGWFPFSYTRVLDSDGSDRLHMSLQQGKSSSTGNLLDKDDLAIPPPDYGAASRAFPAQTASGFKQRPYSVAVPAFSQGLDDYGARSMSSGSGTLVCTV

T2: pM234FS (human (from the printed UniProt entry), UniProt Q9UQB8-4 1-521, T340A | T360A | S366A | S519C, fluorescein / rhodamine labels as in pIRSp53FS (C230 and C519))
T2 construct: IRSp53 (BAIAP2), isoform-4, UniProt Q9UQB8-4, full length, FRET sensor (S519C) with T340A/T360A/S366A; also called modified FRET sensor T340A/T360A/S366A; source: serum-starved HEK293T, purified, labelled
T2 sequence (looked up): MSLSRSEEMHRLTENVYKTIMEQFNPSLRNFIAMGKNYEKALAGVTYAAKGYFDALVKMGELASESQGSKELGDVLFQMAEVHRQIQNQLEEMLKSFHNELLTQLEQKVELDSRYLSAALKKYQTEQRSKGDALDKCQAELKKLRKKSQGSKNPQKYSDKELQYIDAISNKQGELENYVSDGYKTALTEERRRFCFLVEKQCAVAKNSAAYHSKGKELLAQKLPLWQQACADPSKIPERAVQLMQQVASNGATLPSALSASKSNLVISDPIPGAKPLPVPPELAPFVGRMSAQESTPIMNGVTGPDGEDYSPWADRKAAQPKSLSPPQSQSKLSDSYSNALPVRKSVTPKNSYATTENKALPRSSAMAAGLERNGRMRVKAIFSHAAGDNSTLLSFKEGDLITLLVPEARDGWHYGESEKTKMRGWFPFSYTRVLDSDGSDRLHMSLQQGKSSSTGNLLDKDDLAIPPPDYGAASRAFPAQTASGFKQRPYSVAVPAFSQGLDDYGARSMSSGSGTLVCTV


Experiments:
[1] = molecular target: T3, 2xFLAG-Eps8 (human, UniProt Q12929 1-822); assay: pull-down; anti-Flag magnetic beads with or without the FLAG-Eps8/pIRSp53 complex; 14-3-3θ detected; settings: both partners purified
T3 construct: Eps8, human, UniProt Q12929, full length; also called FLAG-tagged Eps8

[2] = molecular target: T1, pIRSp53FS; assay: other fluorescence titration; intramolecular FRET sensor (fluorescein/rhodamine on C230 and C519 of IRSp53); Cdc42, Eps8 and/or 14-3-3θ titrated into the sensor, also back to back; 20 °C; 25 mM Tris-HCl pH 7.5, 150 mM NaCl, 1 mM MgCl2, 5% glycerol, 0.1 mM TCEP; observed Kd (Kobs) from the fits; settings: both partners purified
[3] = molecular target: T4, FLAG-Eps8/pIRSp53 complex (human | human (from the printed UniProt …, UniProt Q12929 1-822)); Q9UQB8-4 1-521, natively phosphorylated in HEK293T cells (as m4)); assay: pull-down; anti-Flag magnetic beads with or without the FLAG-Eps8/pIRSp53 complex; 14-3-3θ detected; settings: both partners purified
T4 construct: Eps8, human, UniProt Q12929, full length; IRSp53 (BAIAP2), isoform-4, UniProt Q9UQB8-4, full length; source: formed from purified 2xFLAG-Eps8 (HEK293T) and purified pIRSp53 (serum-starved HEK293T)

[4] = molecular target: the molecule itself; assay: crystal structure; 14-3-3θ pre-incubated with singly (2.5:1) or doubly (0.6:1) phosphorylated IRSp53 peptides; hanging drop, 18 °C; resolution 2.0 to 2.9 Å
[5] = molecular target: T2, pM234FS; assay: other fluorescence titration; intramolecular FRET sensor (fluorescein/rhodamine on C230 and C519 of IRSp53); Cdc42, Eps8 and/or 14-3-3θ titrated into the sensor, also back to back; 20 °C; 25 mM Tris-HCl pH 7.5, 150 mM NaCl, 1 mM MgCl2, 5% glycerol, 0.1 mM TCEP; observed Kd (Kobs) from the fits; settings: both partners purified

T3 sequence (Q12929 whole entry): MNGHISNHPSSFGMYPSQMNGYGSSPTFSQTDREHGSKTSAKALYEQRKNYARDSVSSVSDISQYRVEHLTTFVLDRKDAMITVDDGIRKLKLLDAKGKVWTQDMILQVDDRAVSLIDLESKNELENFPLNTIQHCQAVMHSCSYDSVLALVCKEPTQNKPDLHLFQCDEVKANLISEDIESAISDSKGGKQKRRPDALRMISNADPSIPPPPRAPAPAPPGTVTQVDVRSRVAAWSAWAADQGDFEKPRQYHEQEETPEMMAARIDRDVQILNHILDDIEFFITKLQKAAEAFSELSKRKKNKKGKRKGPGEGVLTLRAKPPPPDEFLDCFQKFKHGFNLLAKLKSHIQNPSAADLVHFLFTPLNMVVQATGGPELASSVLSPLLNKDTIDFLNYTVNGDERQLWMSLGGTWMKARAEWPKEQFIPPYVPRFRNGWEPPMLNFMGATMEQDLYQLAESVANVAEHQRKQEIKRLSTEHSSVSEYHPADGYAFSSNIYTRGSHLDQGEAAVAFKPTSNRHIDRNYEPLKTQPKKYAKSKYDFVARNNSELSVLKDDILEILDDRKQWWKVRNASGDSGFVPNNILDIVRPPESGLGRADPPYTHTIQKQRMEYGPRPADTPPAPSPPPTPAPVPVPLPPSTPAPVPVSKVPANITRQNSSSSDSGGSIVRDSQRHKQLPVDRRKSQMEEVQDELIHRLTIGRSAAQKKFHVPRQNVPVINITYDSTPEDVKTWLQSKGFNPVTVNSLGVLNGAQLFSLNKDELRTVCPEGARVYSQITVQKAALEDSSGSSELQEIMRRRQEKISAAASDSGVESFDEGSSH
T4 sequence (Q12929 whole entry, canonical isoform, one chain of several): as the sequence (Q12929 whole entry) above

| binding result [1] | Kd [2] | binding result [3] | binding result [5] | Binder | binding result [4] |
| --- | --- | --- | --- | --- | --- |
| binds |  |  |  | IRSp53-FLAG (wild type), natively phosphorylated (natural protein, human (from the printed UniProt entry), UniProt Q9UQB8-4 1-521, looked up, phosphorylated in HEK293T cells at S325, T340, T360, S366 and a residue within 452SSST455, most likely S454 (mass spectrometry of the purified 14-3-3-binding-competent fraction), also called pIRSp53; WT IRSp53-FLAG; source: HEK293T, transfected, in lysate; not shown: FLAG, C-terminal, kept) MSLSRSEEMHRLTENVYKTIMEQFNPSLRNFIAMGKNYEKALAGVTYAAKGYFDALVKMGELASESQGSKELGDVLFQMAEVHRQIQNQLEEMLKSFHNELLTQLEQKVELDSRYLSAALKKYQTEQRSKGDALDKCQAELKKLRKKSQGSKNPQKYSDKELQYIDAISNKQGELENYVSDGYKTALTEERRRFCFLVEKQCAVAKNSAAYHSKGKELLAQKLPLWQQACADPSKIPERAVQLMQQVASNGATLPSALSASKSNLVISDPIPGAKPLPVPPELAPFVGRMSAQESTPIMNGVTGPDGEDYSPWADRKAAQPKSLSPPQSQSKLSDSYSNTLPVRKSVTPKNSYATTENKTLPRSSSMAAGLERNGRMRVKAIFSHAAGDNSTLLSFKEGDLITLLVPEARDGWHYGESEKTKMRGWFPFSYTRVLDSDGSDRLHMSLQQGKSSSTGNLLDKDDLAIPPPDYGAASRAFPAQTASGFKQRPYSVAVPAFSQGLDDYGARSMSSGSGTLVSTV |  |
|  | 0.079 µM | binds |  | 14-3-3θ (natural protein, human, 14-3-3θ, human, UniProt P27348; also called 14-3-3 theta; 14-3-3τ) MEKTELIQKAKLAEQAERYDDMATCMKAVTEQGAELSNEERNLLSVAYKNVVGGRRSAWRVISSIEQKTDTSDKKLQLIKDYREKVESELRSICTTVLELLDKYLIANATNPESKVFYLKMKGDYFRYLAEVACGDDRKQTIDNSQGAYQEAFDISKKEMQPTHPIRLGLALNFSVFYYEILNNPELACTLAKTAFDEAIAELDTLNEDSYKDSTLIMQLLRDNLTLWTSDSAGEECDAAEGAEN | binds |
|  | 19.1 µM |  | binds | GMPPNP-Cdc42 (constitutively active mutant G12V) (domain or fragment, Cdc42, human, residues 1-178, G12V; Loaded with GMPPNP; also called GNPPNP-Cdc42 (G12V mutant); source: E. coli BL21(DE3), purified) not shown |  |
